Assay results: US9260500B2, “Peptide and use thereof” (Takeda Pharmaceutical Company Limited, priority 2009, dated 2016)
Starred links: 1 amine or outer side, 2 acyl side, 3 side chain; linkers in the order of their positions; H or OH if unused. Non-standard residues stand in square brackets, D forms with d. *: point of attachment. X9 = (cis-2,6-dimethylmorpholin-4-yl)carbonyl, C[C@@H]1CN(C(=O)*)C[C@H](C)O1; X2 = (tetrahydro-2H-pyran-4-ylmethyl)carbamoyl, O=C(NCC1CCOCC1)*; Ala(piperidin-4-yl) = O=C([C@H](CC1CCN([*:3])CC1)N[*:1])[*:2]; tBuAla = CC(C)(C)C[C@H](N)C(=O)O; 4Pal = N[C@@H](Cc1ccncc1)C(=O)O; dHyp = O=C(O)[C@H]1C[C@H](O)CN1; Cha = N[C@@H](CC1CCCCC1)C(=O)O; dIva = CC[C@@](C)(N)C(=O)O; Iva = CC[C@](C)(N)C(=O)O; Abu = CC[C@H](N)C(=O)O; Aib = CC(C)(N)C(=O)O

Assays:
human Y2 receptor [1] = molecular target: T1, human Y2 receptor (Homo sapiens, UniProt P49146); test: Receptor Binding Assay (RBA) for Human Y2, [125I]-PYY displacement on hY2R/CHO membrane fraction; settings: IC50 of test compound/IC50 of PYY(3-36) (PYY(3-36) taken as 1)
T1 construct: expressed in transfected cells; membrane fraction
T1 sequence (P49146 1-381): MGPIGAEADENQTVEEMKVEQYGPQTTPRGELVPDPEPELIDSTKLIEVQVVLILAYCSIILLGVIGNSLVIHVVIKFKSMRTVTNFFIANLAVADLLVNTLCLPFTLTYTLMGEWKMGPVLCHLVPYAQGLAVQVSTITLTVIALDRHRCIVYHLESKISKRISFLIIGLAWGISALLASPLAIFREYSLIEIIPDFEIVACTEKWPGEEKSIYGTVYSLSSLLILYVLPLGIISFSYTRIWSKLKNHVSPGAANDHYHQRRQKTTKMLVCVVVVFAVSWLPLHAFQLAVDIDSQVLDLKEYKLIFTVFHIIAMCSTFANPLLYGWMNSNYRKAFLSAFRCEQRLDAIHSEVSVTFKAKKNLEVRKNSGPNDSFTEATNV
Method in brief: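 Read-out is [125I]-PYY displacement from membranes of CHO/dhfr− cells stably transfected with human Y2R. Membranes were obtained by disrupting cells in a buffer of 10 mM NaHCO3, 5 mM EDTA and protease inhibitors.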

human Y2 receptor [2] = molecular target: T1, human Y2 receptor; test: Human Y2 Receptor G Protein Binding Assay (GBA), [35S]GTPγS; assay type: biochemical; settings: EC50 of test compound/EC50 of PYY(3-36) (PYY3-36 taken as 1), hY2R/CHO membrane fraction
Method in brief: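 Agonism measured as [35S]GTPγS binding, read by GF/C filtration and scintillation counting after 120 min at room temperature, using human Y2 membranes at 1 μg protein/mL in pH 7.4 Tris/MgCl2/NaCl/GDP buffer. Compound serially diluted 100 μM–1 nM; EC50 normalized to PYY(3-36) (ratio = compound/PYY).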

male C57EL/6J mice = test: 3-Days Continuous Subcutaneous Administration Test-1 (food intake suppressing activity); assay type: in vivo, mouse; settings: 0.03 mg/kg/day, subcutaneous Alzet pump, food consumption over 3 days; relative to food intake suppression rate for PYY(3-36) (1 mg/kg/day) taken as 100%
Method in brief: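 Male […] mice, 12-13 weeks, received compound at 0.03 mg/kg/day by subcutaneous osmotic pump (50% DMSO vehicle), housed singly with free food access. Food consumed over 3 days measured; suppression expressed relative to PYY(3-36) (1 mg/kg/day) set as 100%.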

Substance | RBA IC50 Ratio (human Y2 receptor [1]) | GBA EC50 Ratio (human Y2 receptor [2]) | food intake suppression rate (%) (male C57EL/6J mice)
(Tetrahydro-2H-pyran-4-ylmethyl)carbamoyl-[D-Pro24, Pya(4)26, Cha27,36, Aib28,31, Lys30]-PYY(23-36) (X2-S[dP]R[4Pal][Cha][Aib]NK[Aib]TRQR[Cha]-NH2; SMILES C[C@@H](O)[C@H](NC(=O)C(C)(C)NC(=O)[C@H](CCCCN)NC(=O)[C@H](CC(N)=O)NC(=O)C(C)(C)NC(=O)[C@H](CC1CCCCC1)NC(=O)[C@H](Cc1ccncc1)NC(=O)[C@H](CCCNC(=N)N)NC(=O)[C@H]1CCCN1C(=O)[C@H](CO)NC(=O)NCC1CCOCC1)C(=O)N[C@@H](CCCNC(=N)N)C(=O)N[C@@H](CCC(N)=O)C(=O)N[C@@H](CCCNC(=N)N)C(=O)N[C@@H](CC1CCCCC1)C(N)=O) [compound No. 325] | 0.82 | 0.7 | 47
(cis-2,6-Dimethylmorpholin-4-yl)carbonyl-[D-Pro24, Pya(4)26, Cha27,36, Aib28,31, Lys30]-PYY(23-36) (X9-S[dP]R[4Pal][Cha][Aib]NK[Aib]TRQR[Cha]-NH2; SMILES C[C@@H]1CN(C(=O)N[C@@H](CO)C(=O)N2CCC[C@@H]2C(=O)N[C@@H](CCCNC(=N)N)C(=O)N[C@@H](Cc2ccncc2)C(=O)N[C@@H](CC2CCCCC2)C(=O)NC(C)(C)C(=O)N[C@@H](CC(N)=O)C(=O)N[C@@H](CCCCN)C(=O)NC(C)(C)C(=O)N[C@H](C(=O)N[C@@H](CCCNC(=N)N)C(=O)N[C@@H](CCC(N)=O)C(=O)N[C@@H](CCCNC(=N)N)C(=O)N[C@@H](CC2CCCCC2)C(N)=O)[C@@H](C)O)C[C@H](C)O1) [compound 269] | 0.91 | 0.65 | 11
Ac-[Aib24,28,31, Pya(4)26, Cha27,36, Lys30]-PYY(23-36) (Ac-S[Aib]R[4Pal][Cha][Aib]NK[Aib]TRQR[Cha]-NH2; SMILES CC(=O)N[C@@H](CO)C(=O)NC(C)(C)C(=O)N[C@@H](CCCNC(=N)N)C(=O)N[C@@H](Cc1ccncc1)C(=O)N[C@@H](CC1CCCCC1)C(=O)NC(C)(C)C(=O)N[C@@H](CC(N)=O)C(=O)N[C@@H](CCCCN)C(=O)NC(C)(C)C(=O)N[C@H](C(=O)N[C@@H](CCCNC(=N)N)C(=O)N[C@@H](CCC(N)=O)C(=O)N[C@@H](CCCNC(=N)N)C(=O)N[C@@H](CC1CCCCC1)C(N)=O)[C@@H](C)O) [compound No. 240] | 0.81 | 1.1 | 36
Ac-[D-Hyp24, Iva25,28, Pya(4)26, Cha27,36, Lys30, Aib31]-PYY(23-36) (Ac-S[dHyp][Iva][4Pal][Cha][Iva]NK[Aib]TRQR[Cha]-NH2; ends and bridges not checked) [compound No. 298] | 0.86 | 1.0 | 56
Ac-[D-Hyp24, Iva25, Pya(4)26, Cha27,36, Leu(Me)28, Lys30, Aib31]-PYY(23-36) (Ac-S[dHyp][Iva][4Pal][Cha][tBuAla]NK[Aib]TRQR[Cha]-NH2; SMILES CC[C@](C)(NC(=O)[C@H]1C[C@H](O)CN1C(=O)[C@H](CO)NC(C)=O)C(=O)N[C@@H](Cc1ccncc1)C(=O)N[C@@H](CC1CCCCC1)C(=O)N[C@@H](CC(C)(C)C)C(=O)N[C@@H](CC(N)=O)C(=O)N[C@@H](CCCCN)C(=O)NC(C)(C)C(=O)N[C@H](C(=O)N[C@@H](CCCNC(=N)N)C(=O)N[C@@H](CCC(N)=O)C(=O)N[C@@H](CCCNC(=N)N)C(=O)N[C@@H](CC1CCCCC1)C(N)=O)[C@@H](C)O) [compound No. 335] | 0.97 | 1.5 | 27
Ac-[D-Pro24, Abu26, Cha27,36, Aib28,31, Lys30]-PYY(23-36) (Ac-S[dP]R[Abu][Cha][Aib]NK[Aib]TRQR[Cha]-NH2; SMILES CC[C@H](NC(=O)[C@H](CCCNC(=N)N)NC(=O)[C@H]1CCCN1C(=O)[C@H](CO)NC(C)=O)C(=O)N[C@@H](CC1CCCCC1)C(=O)NC(C)(C)C(=O)N[C@@H](CC(N)=O)C(=O)N[C@@H](CCCCN)C(=O)NC(C)(C)C(=O)N[C@H](C(=O)N[C@@H](CCCNC(=N)N)C(=O)N[C@@H](CCC(N)=O)C(=O)N[C@@H](CCCNC(=N)N)C(=O)N[C@@H](CC1CCCCC1)C(N)=O)[C@@H](C)O) [compound No. 320] | 2.3 | 0.98 | 18
Ac-[D-Pro24, Ala(4Pip)25, Pya(4)26, Cha27,36, Aib28,31, Lys30]-PYY(23-36) [compound No. 312] (Ac-S[dP][Ala(piperidin-4-yl)][4Pal][Cha][Aib]NK[Aib]TRQR[Cha]-NH2; SMILES CC(=O)N[C@@H](CO)C(=O)N1CCC[C@@H]1C(=O)N[C@@H](CC1CCNCC1)C(=O)N[C@@H](Cc1ccncc1)C(=O)N[C@@H](CC1CCCCC1)C(=O)NC(C)(C)C(=O)N[C@@H](CC(N)=O)C(=O)N[C@@H](CCCCN)C(=O)NC(C)(C)C(=O)N[C@H](C(=O)N[C@@H](CCCNC(=N)N)C(=O)N[C@@H](CCC(N)=O)C(=O)N[C@@H](CCCNC(=N)N)C(=O)N[C@@H](CC1CCCCC1)C(N)=O)[C@@H](C)O) | 4.3 | 5.8 | 10

Continued, in another order:

RBA IC50 Ratio (human Y2 receptor [1]) | GBA EC50 Ratio (human Y2 receptor [2]) | Substance | food intake suppression rate (%) (male C57EL/6J mice)
1.5 | 1.4 | Ac-[D-Hyp24, Iva25, Pya(4)26, Cha27,36, Aib28,31, Lys30]-PYY(23-36) (Ac-S[dHyp][Iva][4Pal][Cha][Aib]NK[Aib]TRQR[Cha]-NH2; SMILES CC[C@](C)(NC(=O)[C@H]1C[C@H](O)CN1C(=O)[C@H](CO)NC(C)=O)C(=O)N[C@@H](Cc1ccncc1)C(=O)N[C@@H](CC1CCCCC1)C(=O)NC(C)(C)C(=O)N[C@@H](CC(N)=O)C(=O)N[C@@H](CCCCN)C(=O)NC(C)(C)C(=O)N[C@H](C(=O)N[C@@H](CCCNC(=N)N)C(=O)N[C@@H](CCC(N)=O)C(=O)N[C@@H](CCCNC(=N)N)C(=O)N[C@@H](CC1CCCCC1)C(N)=O)[C@@H](C)O) [compound No. 297] | 45
0.39 | 1.3 | Ac-[D-Iva24, Pya(4)26, Cha27,36, Aib28,31, Lys30]-PYY(23-36) (Ac-S[dIva]R[4Pal][Cha][Aib]NK[Aib]TRQR[Cha]-NH2; SMILES CC[C@@](C)(NC(=O)[C@H](CO)NC(C)=O)C(=O)N[C@@H](CCCNC(=N)N)C(=O)N[C@@H](Cc1ccncc1)C(=O)N[C@@H](CC1CCCCC1)C(=O)NC(C)(C)C(=O)N[C@@H](CC(N)=O)C(=O)N[C@@H](CCCCN)C(=O)NC(C)(C)C(=O)N[C@H](C(=O)N[C@@H](CCCNC(=N)N)C(=O)N[C@@H](CCC(N)=O)C(=O)N[C@@H](CCCNC(=N)N)C(=O)N[C@@H](CC1CCCCC1)C(N)=O)[C@@H](C)O) [compound No. 242] | 25
1.2 | 1.5 | Ac-[D-Pro24, Ala(4Pip)26, Cha27,36, Aib28,31, Lys30]-PYY(23-36) (Ac-S[dP]R[Ala(piperidin-4-yl)][Cha][Aib]NK[Aib]TRQR[Cha]-NH2; SMILES CC(=O)N[C@@H](CO)C(=O)N1CCC[C@@H]1C(=O)N[C@@H](CCCNC(=N)N)C(=O)N[C@@H](CC1CCNCC1)C(=O)N[C@@H](CC1CCCCC1)C(=O)NC(C)(C)C(=O)N[C@@H](CC(N)=O)C(=O)N[C@@H](CCCCN)C(=O)NC(C)(C)C(=O)N[C@H](C(=O)N[C@@H](CCCNC(=N)N)C(=O)N[C@@H](CCC(N)=O)C(=O)N[C@@H](CCCNC(=N)N)C(=O)N[C@@H](CC1CCCCC1)C(N)=O)[C@@H](C)O) [compound No. 310] | 12
